From PMC6995573 (2019)

T1: Human ornithine decarboxylase (human, UniProt P11926 2-421)
T1 chain: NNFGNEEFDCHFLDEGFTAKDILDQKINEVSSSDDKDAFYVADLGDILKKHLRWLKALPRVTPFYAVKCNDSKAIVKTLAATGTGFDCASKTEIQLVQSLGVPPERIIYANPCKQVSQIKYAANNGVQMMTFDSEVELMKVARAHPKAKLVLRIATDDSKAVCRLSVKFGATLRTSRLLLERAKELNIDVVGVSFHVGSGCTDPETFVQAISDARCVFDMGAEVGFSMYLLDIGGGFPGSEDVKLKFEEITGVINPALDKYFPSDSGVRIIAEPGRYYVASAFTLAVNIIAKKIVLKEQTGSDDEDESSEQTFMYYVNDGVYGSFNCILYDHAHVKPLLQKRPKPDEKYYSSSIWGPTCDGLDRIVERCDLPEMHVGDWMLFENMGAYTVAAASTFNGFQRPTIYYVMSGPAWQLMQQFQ

B1: AZ3_WT (natural protein)
chain: MPCKRCRPSVYSLSYIKRGKTRNYLYPIWSPYAYYLYCYKYRITLREKMLPRCYKSITYKEEEDLTLQPRSCLQCSESLVGLQEGKSTEQGNHDQLKELYSAGNLTVLATDPLLHQDPVQLDFHFRLTSQTSAHWHGLLCDRRLFLDIPYQALDQGNRESLTATLEYVEEKTNVDSVFVNFQNDRNDRGALLRAFSYMGFEVVRPDHPALPPLDNVIFMVYPLERDVGHLPSEPP
B2: AZ2 (natural protein)
chain: MINTQDSSILPLSNCPQLQCCRHIVPGPLWCSDAPHPLSKIPGGRGGGRDPSLSALIYKDEKLTVTQDLPVNDGKPHIVHFQYEVTEVKVSSWDAVLSSQSLFVEIPDGLLADGSKEGLLALLEFAEEKMKVNYVFICFRKGREDRAPLLKTFSFLGFEIVRPGHPCVPSRPDVMFMVYPLDQNLSDED
B3: AZ_(95–228)_E105A (domain or fragment)
chain: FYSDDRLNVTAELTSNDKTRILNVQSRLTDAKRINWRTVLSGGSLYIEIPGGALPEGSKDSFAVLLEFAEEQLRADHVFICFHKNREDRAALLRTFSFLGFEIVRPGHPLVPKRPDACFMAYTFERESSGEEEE
B4: AZ_(95–228)_D98A (domain or fragment)
chain: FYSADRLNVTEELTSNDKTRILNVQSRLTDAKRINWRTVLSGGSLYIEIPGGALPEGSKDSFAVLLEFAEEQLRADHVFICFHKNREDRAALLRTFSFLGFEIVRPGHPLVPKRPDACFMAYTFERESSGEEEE
B5: AZ_(95–228)_D111A (domain or fragment)
chain: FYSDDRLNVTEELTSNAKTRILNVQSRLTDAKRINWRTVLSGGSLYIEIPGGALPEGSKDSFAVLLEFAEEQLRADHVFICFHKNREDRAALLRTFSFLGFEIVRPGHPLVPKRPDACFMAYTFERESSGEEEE
B6: AZ_(95–228)_E106A (domain or fragment)
chain: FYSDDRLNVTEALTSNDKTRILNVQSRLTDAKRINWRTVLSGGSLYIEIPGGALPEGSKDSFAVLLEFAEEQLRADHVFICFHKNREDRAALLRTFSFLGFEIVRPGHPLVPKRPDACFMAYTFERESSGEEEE
B7: AZ_(95–228)_R100A (domain or fragment)
chain: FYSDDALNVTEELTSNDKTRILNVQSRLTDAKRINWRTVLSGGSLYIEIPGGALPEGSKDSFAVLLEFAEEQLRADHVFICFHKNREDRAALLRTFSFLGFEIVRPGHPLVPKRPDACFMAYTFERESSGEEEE
B8: AZ_(95–228)_R114A (domain or fragment)
chain: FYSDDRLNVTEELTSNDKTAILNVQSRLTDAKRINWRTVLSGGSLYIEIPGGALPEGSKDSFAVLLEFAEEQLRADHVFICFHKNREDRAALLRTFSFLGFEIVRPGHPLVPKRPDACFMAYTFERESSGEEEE
B9: AZ_(95–228)_D124A (domain or fragment)
chain: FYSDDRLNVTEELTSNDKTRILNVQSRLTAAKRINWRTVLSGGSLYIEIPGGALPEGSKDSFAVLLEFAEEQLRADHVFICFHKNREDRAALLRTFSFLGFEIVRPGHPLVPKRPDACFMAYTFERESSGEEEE
B10: AZ_(95–228)_D99A (domain or fragment)
chain: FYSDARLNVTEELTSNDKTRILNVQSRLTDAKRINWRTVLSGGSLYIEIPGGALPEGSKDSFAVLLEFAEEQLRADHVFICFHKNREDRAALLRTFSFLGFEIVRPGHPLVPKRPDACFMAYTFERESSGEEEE
B11: AZ_(95–228)_R121A (domain or fragment)
chain: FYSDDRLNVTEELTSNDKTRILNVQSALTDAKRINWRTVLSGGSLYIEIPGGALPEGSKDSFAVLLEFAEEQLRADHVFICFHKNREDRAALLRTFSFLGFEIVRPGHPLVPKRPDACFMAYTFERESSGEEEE

Molecular target: T1, Human ornithine decarboxylase
Test: inhibition of ODC enzyme activity

Compared with B1, B2 is 4.4-fold lower in IC50: 840 nM for the first, 190 nM for the second.

Molecular target: T1, Human ornithine decarboxylase
Test: AUC

Going from B1 to B2, the Kd falls from 590 nM to 280 nM (2.1-fold).

Molecular target: T1, Human ornithine decarboxylase
Test: inhibition of ODC enzyme activity
Remark: another data set of the same source

B3 and B4 are within 1.5-fold of each other in IC50: 190 nM for the first, 180 nM for the second.

B5 and B6 are within 1.5-fold of each other in IC50: 190 nM for the first, 200 nM for the second.

B7 and B8 are within 1.5-fold of each other in IC50: 190 nM for the first, 160 nM for the second.

B9 and B10 are the same in IC50: 170 nM for the first, 170 nM for the second.

In the case of B11, the IC50 is reported as 160 nM.
